The target in test [1] is SF2/ASF (wild type) (Homo sapiens (Human)) (UniProt Q07955).
Test [2] addresses myelin basic protein (MBP).

For the substance “SR protein-specific kinase, SRPK1 (enzyme)”, in test [1], the Km for phosphorylation of SF2/ASF stood at 0.07 µM and the Vmax for phosphorylation of SF2/ASF stood at 0.45 pmol per min. For the same substance, in test [2], the Km for phosphorylation of MBP turned out to be 5.8 µM and the Vmax for phosphorylation of MBP was found to be 0.02 pmol per min.

(Values after patent US5559019.)
